Experimental data as given in US9956304B2, “Contrast agents, methods for preparing contrast agents, and methods of imaging” (GEORGIA STATE UNIVERSITY RESEARCH FOUNDATION, INC., priority 2012, dated 2018).
Several values for one entry are separate records, joined by “and”; a condition that tells them apart may be missing. Equal entries are not always repeated.

How the values were obtained:
[1] = Gd3+ binding affinity by Tb3+-chelator buffer system and Gd3+ competition; settings: vs wild type protein scaffold
[2] = Water coordination number by Tb3+ luminescence lifetime; assay type: physicochemical; settings: Tb^3+ luminescence lifetime in H2O and D2O
Description: The water coordination number of Tb^3+ in ProCA was measured by Tb^3+ luminescence lifetime experiments. The determined water number for calcium-binding protein WT is 1.3, which is consistent with reported value^31.
Tb^3+ luminescent life time decay in H2O and D2O solvents is measured to characterize the water coordination number of the inner sphere of metal binding sites. WT calcium-binding protein has averaged water number of 1.3, which is consistent with reported value.

[3] = r1 and r2 relaxivity, mini-spec 60 MHz 37 C; assay type: physicochemical
[4] = r1 relaxivity at 7 T, inversion recovery; assay type: physicochemical; settings: room temperature
Source text: With the development of high field MRI scanner, there is a strong need to develop the contrast agents with high relaxivity in high magnetic field strength. However, the relaxivity of macromolecular contrast agents always has dramatic drop at high magnetic field. Caravan and Luther point out the contrast agents with optimized relaxivity in high field should have a rotation correlation time (τR) around 2 ns. We tested our Gd-calcium-binding protein variants in 7 T Varian MRI scanner using inversion recovery sequence. […] Other ProCA3s also have a per Gd r1 relaxivity around 20 mM^−1s^−1 at 7 T and room temperature.

[5] = In vitro MRI detection limit, T1-weighted spin echo at 7 T; assay type: physicochemical; settings: printed partly as 'at least'
Source text: Less contrast agents are acquired to acquired good image enhancement when the relaxivity of the contrast agent improved.

[6] = T1- and T2-weighted MRI of liver and blood vessels; assay type: in vivo, mice
Description: Because the enhanced T1- and T2-weighted images have different effects of imaging contrast (brighter or darker, respectively), there is an enhanced probability of detecting the targeted tumor tissue. In contrast, the currently available approved liver contrast agents such as Eovist® have a very short fast phase (sec.) and liver uptake phase (approximately 3 min) in human. The mouse halftime is much shorter. Due this limitation, with these agents, it is not possible to obtain both high quality imaging for small animal. For human, their applications are also limited by their low relaxivity and short half-life. It is possible to obtain very high quality imaging by applying our contrast agent to both low and high field strengths such as 0.47-9.4 T.
Longer blood circulation of ProCA will benefit the MRI guided intervention therapy […], since such therapy usually performed for a very long time. Long blood circulation time of ProCA32 in blood also promising for the application of DCE-MRI. Arterial input function (AIF) in DCE-MRI experiment is the key experiment for successful calculating tumor permeability. However, it is hard to accurate determine AIF of current clinically available MRI contrast agents, since the blood circulation time of current clinically available MRI contrast agents is too short. […]

[7] = Heat stability during purification; assay type: physicochemical
Description: These protein solutions were load to FPLC equipped with Hi-trap Q column. After binding to the column, the unbounded component was first washed with 7 column volumes (CV) of buffer A (10 mM HEPES buffer at pH 8.0). Then, buffer B (10 mM HEPES buffer, 1 M NaCl at pH 8.0) concentration was increased to 25% within 7 CV. The column was further washed with 25% of buffer B for 2 CV and then increase to 100% of buffer B of 1 CV to wash out every component bounded to the column. The fractions with ProCA32 elutions were determined by UV abs and SDS-PAGE.

[8] = mouse, in vivo
[9] = mouse, in vivo; remark: listed apart in the source
[10] = Serum stability (SDS-PAGE, mass spectrum, immuno-blot); settings: 50% serum

B1: ProCA32: parvalbumin-scaffold protein MRI contrast agent with two Gd3+ binding sites; calcium-binding protein variant (S56D, F103W) (protein)
chain: MSMTDLLNAEDIKKAVGAFSATDSFDHKKFFQMVGLKKKSADDVKKVFHMLDKDKDGFIEEDELGFILKGFSPDARDLSAKETKMLMAAGDKDGDGKIGVEEWSTLVAES
modifications: Gd3+ bound; ProCA3
- higher Tb^3+ and Gd^3+ binding affinity compared with wild type [1]: 10^11 fold
- water coordination number [2]: 0.4
- water coordination number ([2]; listed as PROCA32): 0.44
- per Gd r1 [3]: 30 mmol⁻¹ s⁻¹
- per particle r1 [3]: 60 mmol⁻¹ s⁻¹
- per Gd r1 relaxivity at 7 T [4]: 18 mM⁻¹ s⁻¹
- concentration detectable in vitro by MRI [5]: 2.5 µM and 2 µM
- liver in T2-weighted sequence ([6]; 7 min after tail vein injection): the liver became darker
- liver in T1-weighted spin echo ([6]; 15 min): the liver showing enhanced an MR signal
- heat stability [7]: very stable at 90 °C
- clearance [8]: about 0.13 l/kg
- excretion half-life [8]: around 2.8 hours
- blood half-life longer than that of Gd-DTPA [9]: more than 100 times
- stable in serum [10]: at least 3 days
